116 sequences from the supplement of paper PMC10724198 can be followed below.

± gives the standard deviation of the averaged measurements.
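Note: PSI is a weighted mean of sequencing reads over stability bins, variants kept only with over 10 reads, mCherry proximal and sfGFP distal, peptide attached via GGGS linker.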

For this data set, the system named is Saccharomyces cerevisiae. Nature of the data set: protein stability index of tFT-peptide fusion (C-terminal peptide) (PSI (0-1 scale)); higher = more stable (slower turnover). The conditions noted are these: genetic background: wild type; temperature: 30 C.
SSQRPRCTFVLL: the protein stability index is 0.684 ± 0.031.
As for SSRPPPVLTPAR, the protein stability index was 0.745 ± 0.044.
In the case of SSRSQTVRTFAL it was 0.689 ± 0.068.
As to SSSFLVLSSHFI, the protein stability index worked out at 0.701 ± 0.028.
In the case of SSSPLPPPRLPP it was 0.7039 ± 0.0016.
As for SSSPPPPSLAPP, the protein stability index turned out to be 0.693 ± 0.0025.
In the case of SSTLPVYLSTTL it was 0.662 ± 0.023; in that of SSTSPPPVTPPD, 0.625 ± 0.0096; in that of SSVCPWACPPPP, 0.666 ± 0.1.
Next, SSVVCGPGVLGV: 0.729 ± 0.077.
Next, STAEFLDFKMTT: 0.691 ± 0.05; STAPRYNGRKYS: 0.702 ± 0.069; STFASLRPLFFS: 0.6128 ± 0.0012.
STGACCGTVRLL registered a protein stability index of 0.642 ± 0.0085.
In the case of STGDWKLKFSKF it was 0.765 ± 0.066; in that of STGLITYNYSVC, 0.648 ± 0.024.
Next, STGVGGPCGRTS: 0.617 ± 0.055; STKVEIKKRDSR: 0.715 ± 0.18; STLPPSRLSSPL: 0.638 ± 0.017.
In the case of STLRGTTESERK it was 0.665 ± 0.057; in that of STLVHSDESQLA, 0.633 ± 0.092; in that of STNLITPPITNI, 0.677 ± 0.011.
For the sequence STPLPPPTPLPA, the protein stability index was found to be 0.723 ± 0.029.
Take STPPCRPFMADL: the protein stability index was 0.619 ± 0.0035.
In turn, STPSLPPPPPSS showed a protein stability index of 0.6806 ± 0.006.
STSDAFLTFPLQ showed a protein stability index of 0.678 ± 0.051.
Next, STVSRHPSSPLP: 0.737 ± 0.039; SVAAGCGHGGGG: 0.657 ± 0.011.
Next, SVAGDEGDRLFR: 0.686 ± 0.022; SVALSSPSRYCS: 0.7137 ± 0.00077; SVEAGHVAERES: 0.732 ± 0.061.
In the case of SVGGGGGAVGGG it was 0.68 ± 0.007; in that of SVGGGRWRYGGR, 0.662 ± 0.04.
Consider SVGGWIARTAIV, for which the protein stability index stood at 0.661 ± 0.011.
In the case of SVGHPAAVHHAR it was 0.675 ± 0.068; in that of SVGRPVACLFVH, 0.5115 ± 0.0019; in that of SVLAIASVIGCL, 0.598 ± 0.032.
In the case of SVLAVSFLSLLV it was 0.636 ± 0.04; in that of SVLVTASSFLYF, 0.649 ± 0.027; in that of SVMWEARTEDGS, 0.756 ± 0.043.
In the case of SVNHVDIANSIL it was 0.647 ± 0.011.
Turning to SVNWVWNSVFDR, the protein stability index is 0.6826 ± 0.0024.
In the case of SVPPPLSPPPPP it was 0.668 ± 0.018.
As for SVRWFLIGCGGA, the protein stability index was found to be 0.579 ± 0.048.
Next, SVSLVQRSVCLD: 0.71 ± 0.021; SVSMEGCVSVRG: 0.7009 ± 0.0036.
For the sequence SVSPLSSSTLTA, the protein stability index worked out at 0.65 ± 0.019.
Next, SVSSSVGRGLRV: 0.711 ± 0.014; SVVSWRGRNRSV: 0.864 ± 0.065.
SVVVGTVFCRSW showed a protein stability index of 0.615 ± 0.015.
For the sequence SVWCRRRRVTNS, the protein stability index stood at 0.5825 ± 0.0054.
Next, SVWCRWGWSDWG: 0.795 ± 0.051; SVWGIVWRGNIV: 0.704 ± 0.024.
On to SVWLISPRPLSV, for which the protein stability index was determined as 0.5639 ± 0.0032.
In the case of SVYCVLSRGNRL it was 0.687 ± 0.1; in that of SWAGGRWRRVPV, 0.658 ± 0.04; in that of SWEIGHLLPGTD, 0.6671 ± 0.0048.
Next, SWFTHTQSVRCS: 0.515 ± 0.014; SWMDRGGAYSGI: 0.731 ± 0.11.
In the case of SWPSLDLVSRMQ it was 0.676 ± 0.038.
TAKQDSGVSTPV displayed a protein stability index of 0.732 ± 0.12.
Next, TAMNNGNSIHKL: 0.682 ± 0.041; TASKHINYKCLA: 0.711 ± 0.16.
The sequence TATYCFNALRRS yielded a protein stability index of 0.72 ± 0.052.
In the case of TAVPPLFARTWQ it was 0.6786 ± 0.0049; in that of TCVRHKVQKSRE, 0.688 ± 0.058.
In the case of TDWGLTPRGRVT it was 0.777 ± 0.062; in that of TEHLLTRGRRNT, 0.64 ± 0.032.
Next, TESGKEKLDVIS: 0.689 ± 0.007; TEYHIVTLPRRC: 0.625 ± 0.076.
On to TFARMYRKGSED, for which the protein stability index was 0.686 ± 0.0077.
In the case of TFFSAPLLPSIP it was 0.73783 ± 0.00011; in that of TFLPAPSPTSPP, 0.724 ± 0.032; in that of TFLRGSILLVSP, 0.617 ± 0.059.
In the case of TFPHSWHISSVP it was 0.677 ± 0.024.
Next, TFPPLLFVCSLL: 0.594 ± 0.0078; TGDNNRGKRDYD: 0.678 ± 0.024.
TGKRADGGAEGG displayed a protein stability index of 0.686 ± 0.0086.
Next, TGRAPGSDVLAS: 0.7139 ± 0.0029; TGREGARVGIGR: 0.687 ± 0.01.
Turning to TGREWCFERGCW, the protein stability index was 0.842 ± 0.14.
TGRNIGRVKIYL returned a protein stability index of 0.665 ± 0.049.
In turn, TGSRGPHRKPPD yielded a protein stability index of 0.691 ± 0.0077.
Next, THFPFPVLFSLP: 0.592 ± 0.03; THSPSPTTAPIP: 0.688 ± 0.011.
In the case of THTEWVQFIRWY, the protein stability index turned out to be 0.733 ± 0.073.
In the case of TIETKVNSKDDS it was 0.735 ± 0.031; in that of TIIPRHTFLPAP, 0.723 ± 0.036; in that of TIKNKKRKPKKK, 0.702 ± 0.044.
In the case of TILAGSSRGTLR it was 0.659 ± 0.061; in that of TINVWFARTNPD, 0.7403 ± 0.0048; in that of TIQPSVTNPTLN, 0.686 ± 0.04.
Next, TIRKKKNRRNKE: 0.731 ± 0.016.
The sequence TISEGMSGRRRR gave a protein stability index of 0.759 ± 0.013.
As for TIVQNLEIVQAR, the protein stability index turned out to be 0.648 ± 0.13.
Regarding TIVSFYVRFLSG, the protein stability index was 0.583 ± 0.15.
Next, TIWLTFGRTPQS: 0.731 ± 0.042.
In turn, TKCGESRENARI gave a protein stability index of 0.681 ± 0.022.
As to TKHRFPKYRYLG, the protein stability index was determined as 0.5868 ± 0.0011.
Next, TKILRGQKRRAA: 0.637 ± 0.1; TKKKNTKKNNNT: 0.67 ± 0.095; TKRKEKHKIIGK: 0.705 ± 0.046.
Next, TKRQTIEIIKKK: 0.809 ± 0.11; TLALQFPFKLLF: 0.653 ± 0.025; TLATHCDVHFTR: 0.734 ± 0.077.
Next, TLDKGRFSPAHL: 0.754 ± 0.049; TLDTICNTTKQR: 0.675 ± 0.047; TLFPPLCVFSFC: 0.587 ± 0.03.
For TLFSNILRSPHS, the protein stability index was 0.696 ± 0.035.
Next, TLGALEVSVYET: 0.614 ± 0.0097.
In the case of TLGLLPDVCVEL it was 0.683 ± 0.021.
Next, TLGSSTPFPCFP: 0.716 ± 0.059; TLHEDVMFYSRM: 0.6843 ± 0.0067.
On to TLKPTHAPSPPP, for which the protein stability index turned out to be 0.672 ± 0.021.
Next, TLLSPRRHPFAR: 0.674 ± 0.022; TLLVLGLSWGLP: 0.618 ± 0.044.
